This test addresses T1, MG64-1 Cas12k expressed with an N-terminal Twin Strep tag and an HRV3C protease site and a C-terminal 2xNLS tag.
T1 sequence: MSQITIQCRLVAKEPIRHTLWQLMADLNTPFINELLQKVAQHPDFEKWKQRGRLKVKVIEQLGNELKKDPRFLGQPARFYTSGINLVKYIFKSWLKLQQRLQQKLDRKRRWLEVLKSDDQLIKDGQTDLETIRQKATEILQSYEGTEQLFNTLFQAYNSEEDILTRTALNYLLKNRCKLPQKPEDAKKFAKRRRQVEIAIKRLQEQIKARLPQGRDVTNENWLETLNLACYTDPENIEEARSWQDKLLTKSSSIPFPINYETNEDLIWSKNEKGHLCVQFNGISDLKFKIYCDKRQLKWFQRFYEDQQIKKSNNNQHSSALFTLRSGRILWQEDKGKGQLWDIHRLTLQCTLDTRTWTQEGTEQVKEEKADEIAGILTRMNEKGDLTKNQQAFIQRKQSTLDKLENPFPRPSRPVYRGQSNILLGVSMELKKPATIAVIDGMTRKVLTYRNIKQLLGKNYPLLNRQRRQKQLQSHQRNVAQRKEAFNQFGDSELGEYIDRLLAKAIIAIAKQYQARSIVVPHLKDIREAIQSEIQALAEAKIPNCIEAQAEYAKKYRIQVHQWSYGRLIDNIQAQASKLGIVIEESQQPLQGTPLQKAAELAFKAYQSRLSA
Description: mass spectrometry of tryptic peptides from SEC-eluted Cas12k Strep pulldown complex; emPAI is a relative measure of abundance.

In patent US20260265717A1 one finds emPAI data, which are given here for 2 molecules.

B1: MG64-1 TnsC (protein)
chain: MTIQEAQAVAKQLGDIQLTSEKLQAEIQRLNRKTVVTLSHVEALHNWLEGKRQAKQSCRVVGESRTGKTIACNAYRLRHKPIQTPGKPPIVPVVYIQVTQECGAKDLFGAIIEHLKYQMTKGTVAEIRQRTFKVLQRCGVEMLIIDEADRLKPKTFAEVRDIFDKLNIAVVLVGTDRLDAVIKRDEQVYNRFRACHRFGKLAGDEFSQTVNIWERQVLKLPVASNLSSKRMLKILGQATGGYLGLLDMILRESAIRALKKGLQKIDLDTLKEVTEEYR
B1 registered an emPAI of 2.43.

B2: MG64-1 TniQ (protein)
chain: MESREIQPWWFLVEPLAGESISHFLGRFRRENELTVTMMGKITGLGGTITRWEKFRFIPIPTEEELTALSEVVQVEVERLWQMFPPKGVGMKHQPIRLCGACYEEERCHKIEWQLKTTQFCSQHGLTLLSECPNCGARFQFPALWVNGWCHRCFLTFGEMVEGQSNKKKYL
The molecule B2 gave an emPAI of 1.61.
